Source: PMC4066776

Biological target: S. pneumoniae RecA lacking the first 28 residues (Δ28), purified (S. pneumoniae) (UniProt P0A451)
Test: SEC-MALS; purified Δ28RecA; details in Supplementary Results and Supplementary Figure S5

## S. pneumoniae RecA lacking the first 28 residues (Δ28), purified (from UniProt P0A451 29-388) (domain or fragment)
  stoichiometry N: 2
